In series [1] the test system is HEK293 cells. Briefly: Cell viability assay (CellTiter-Glo). To be noted: HEK293 transfected with RFPSRCP1 alone. The format is cell-based, human. On the procedure: HEK293 cells were transfected as described with RFP or ^RFPSRCP1. Following transfections, cells were diluted to 500,000 cells/mL with 50,000 cells plated per well in duplicate from each transfection reaction in a 96-well plate. Serial dilutions were then performed down each column of the plate down to 390 cells per well. Cells were cultured for an additional 24 hours, then lysed using the CellTiter-Glo Kit (Promega). Luminescence was quantified between 565-700 nm wavelengths on a Spark microplate reader (Tecan) to determine cell viability.
In general terms: Cellular ATP, detected with luciferase, serves as a proxy for viable cell number.

Series [2] has as its target T1, ^GFPHtt^ex1Q74 (Homo sapiens, UniProt P42858). Briefly: GFPHttex1Q74 puncta in iPSC-derived neurons. The format is cell-based. More on the design: encoding pEGFP huntingtin exon-1 with 23 (^GFPHtt^ex1Q23) or 74 (^GFPHtt^ex1Q74) glutamines; host or cells: human iPSC-derived neurons (mixed cultures with astrocytes). Conditions: co-expression. As to the method: iPSC transfections were performed with mixed cultures of astrocytes and neurons adhered to matrigel-coated coverslips, seeded at 2.6×10^4 cells/cm^2. iPSC transfections were performed using Lipofectamine 2000 according to the manufacturer's instructions and recommended DNA concentrations for a 24-well transfection.
Plated iPSC derived cultures of astrocytes and neurons were fixed with 4% paraformaldehyde in PBS for 20 minutes at room temperature, 3-5 days after transfection. Cells were permeabilized and blocked prior to antibody labeling. Nuclei were labeled with Hoechst nuclear dye. Primary antibodies used were rabbit anti-Tuj1 (Covance MRB-435P), chicken anti-Tuj1(Gene Tex, GTX85469) and mouse anti-GFAP (Cell Signaling, 3670). Images were taken using an upright Nikon fluorescent microscope with a 40× objective. The number of neural cells with GFP positive puncta was quantified using NIS Elements object quantification tool (Nikon) and neurite length was measured using NIS Elements length measurement tool (Nikon).

The target of series [3] is T1, ^GFPHtt^ex1Q74. Put plainly: GFPHttex1Q74 aggregation in zebrafish spinal cord neurons. To be noted: zebrafish embryos injected with RNA. Details: encoding pEGFP huntingtin exon-1 with 23 (^GFPHtt^ex1Q23) or 74 (^GFPHtt^ex1Q74) glutamines; host or cells: zebrafish embryos injected with in vitro transcribed mRNA; spinal cord neurons imaged. The format is in vivo. On the procedure:
To test the effect of ^RFPSRCP1 on ^GFPHtt^ex1Q74 aggregation in zebrafish, each plasmid was used for in vitro synthesis of mRNA (mMessage mMachine T7 transcription kit, ThermoFisher Scientific). Newly fertilized embryos were injected with either 200 pg mRNA each of ^RFPSRCP1 and ^GFPHtt^ex1Q74, or RFP alone and ^GFPHtt^ex1Q74. Embryos were developed until 54 hours post fertilization, at which time live specimens were anesthetized in Tricane, embedded in 1% low-melt agarose, and subjected to confocal microscopy. Spinal cord images were taken at 100 μm×100 μm and a scan depth of 50 μm. Single image planes from 488 nm and 568 nm excitation were collected. Images were then processed for threshold analysis using ImageJ and the total number puncta were scored.

T1 sequence (P42858 with tags, fused parts or gaps): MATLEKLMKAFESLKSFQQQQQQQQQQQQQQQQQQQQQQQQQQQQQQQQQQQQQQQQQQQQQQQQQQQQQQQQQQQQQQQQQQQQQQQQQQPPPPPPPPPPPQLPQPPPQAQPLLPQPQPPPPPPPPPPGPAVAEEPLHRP

B1: SRCP1: Dictyostelium discoideum serine-rich chaperone protein 1 (SEQ ID NO:2), expressed in cells as RFP-tagged construct (protein)
chain: MTILSTFTSFSNPPKLNKSSFSSSTGSSLSMGSNSFAWGGGWGGFGGPKGGSFNVDIAGNLIWGVYGFIRGGVGLVKWRGLQKGCKQP
modifications: RFP tag; Dictyostelium discoideum AX4
As for B1, the “toxicity (viability by CellTiter-Glo)” value in series [1] is recorded as “did not display any toxicity”. The GFPHttex1Q74 puncta entry in series [2] is recorded as “dramatic decrease in ^GFPHtt^ex1Q74 puncta”. In addition, the “GFPHttex1Q74 puncta in spinal cord neurons” value in series [3] is reported as “significant reduction of ^GFPHtt^ex1Q74 puncta”.

The values above are taken from patent US20200207835A1, “SRCP1-BASED THERAPY FOR DISEASES ASSOCIATED WITH PROTEIN AGGREGATION” (THE MEDICAL COLLEGE OF WISCONSIN, INC., priority 2017, published 2020).
